Measurements taken from patent US5849897.

What was measured:
[1] = target: human ciliary neurotrophic factor receptor (CNTFR) (human); assay: indirect binding on COS cells transfected with clone I2: CNTF-myc, 9E10, 125I goat anti-mouse; hand-held gamma counter
[2] = target: human ciliary neurotrophic factor receptor (CNTFR) (human); assay: indirect binding on COS cells transfected with clone I4: CNTF-myc, 9E10, 125I goat anti-mouse; hand-held gamma counter
[3] = target: human ciliary neurotrophic factor receptor (CNTFR) (human); assay: indirect binding on COS cells transfected with clone I6: CNTF-myc, 9E10, 125I goat anti-mouse; hand-held gamma counter
[4] = target: human ciliary neurotrophic factor receptor (CNTFR) (human); assay: indirect binding on COS cells transfected with clone I11: CNTF-myc, 9E10, 125I goat anti-mouse; hand-held gamma counter
[5] = target: human ciliary neurotrophic factor receptor (CNTFR) (human); assay: indirect binding on COS cells transfected with clone I7: CNTF-myc, 9E10, 125I goat anti-mouse; hand-held gamma counter
[6] = target: human ciliary neurotrophic factor receptor (CNTFR) (human); assay: indirect binding on COS cells transfected with clone I1: CNTF-myc, 9E10, 125I goat anti-mouse; hand-held gamma counter
[7] = target: human ciliary neurotrophic factor receptor (CNTFR) (human); assay: indirect binding: CNTF-myc, 9E10, FITC-labelled goat anti-mouse antibody, FACS of transfected COS cells
[8] = target: human ciliary neurotrophic factor receptor (CNTFR) (human); assay: indirect binding on COS cells transfected with clone I13: CNTF-myc, 9E10, 125I goat anti-mouse; hand-held gamma counter
[9] = target: human ciliary neurotrophic factor receptor (CNTFR) (human); assay: indirect binding on COS cells transfected with clone I9: CNTF-myc, 9E10, 125I goat anti-mouse; hand-held gamma counter
[10] = target: human ciliary neurotrophic factor receptor (CNTFR) (human); assay: indirect binding on COS cells transfected with clone I14: CNTF-myc, 9E10, 125I goat anti-mouse; hand-held gamma counter
[11] = target: human ciliary neurotrophic factor receptor (CNTFR) (human); assay: indirect binding on COS cells transfected with clone I10: CNTF-myc, 9E10, 125I goat anti-mouse; hand-held gamma counter
[12] = target: human ciliary neurotrophic factor receptor (CNTFR) (human); assay: indirect binding on COS cells transfected with clone I5: CNTF-myc, 9E10, 125I goat anti-mouse; hand-held gamma counter
[13] = target: human ciliary neurotrophic factor receptor (CNTFR) (human); assay: indirect binding on COS cells transfected with clone I12: CNTF-myc, 9E10, 125I goat anti-mouse; hand-held gamma counter
[14] = target: human ciliary neurotrophic factor receptor (CNTFR) (human); assay: indirect binding on COS cells transfected with clone I8: CNTF-myc, 9E10, 125I goat anti-mouse; hand-held gamma counter
[15] = target: human ciliary neurotrophic factor receptor (CNTFR) (human); assay: indirect binding on COS cells transfected with clone I15: CNTF-myc, 9E10, 125I goat anti-mouse; hand-held gamma counter

CPM bound [1]: 8500 CPM
CPM bound [2]: 9000 CPM
CPM bound [3]: 1600 CPM
CPM bound [4]: 7000 CPM
CPM bound [5]: 6000 CPM
CPM bound [6]: 2000 CPM
fold increase (FACS, positive against negative clones) [7]: 100 fold
CPM bound [8]: 8000 CPM
CPM bound [9]: 7000 CPM
CPM bound [10]: 10000 CPM
CPM bound [11]: 4500 CPM
CPM bound [12]: 2000 CPM
CPM bound [13]: 5000 CPM
CPM bound [14]: 7500 CPM
CPM bound [15]: 8000 CPM
Substance: CNTF/myc (ligand)
